Laboratory results reported in patent US20060216303A1.

Molecular target: bacterial fusion protein 11-2 (a hybrid of b-galactosidase and human mammary mucin) (human) (UniProt P15941)
Experiment: reciprocal of the competitor concentration giving 50% binding; competition radioimmunoassay on 11-2 fusion protein

Ka [M⁻¹] | Binder
2.68e+08 | murine-human chimeric BrE-3 antibody (antibody, V domains shown) VH: EVKLEESGGGLVQPGGSMKLSCAASGFTFSDAWMDWVRQSPEKGLEWVAEIRNKANNHATYYDESVKGRFTISRDDSKSRVYLQMISLRAEDTGLYYCTGEFANWGQGTLVTVSA VL: DVVMTQTPLSLPVSLGDQASISCRSSQNLVHNNGNTYLYWFLQKSGQSPKLLIYRASIRFSGVPDRFSGSGSETDFTLKISRVEAEDLGVYFCFQGTHVPWTFGGGTKLEIK
3.75e+08 | murine BrE-3 monoclonal antibody (antibody, V domains shown) VH: EVKLEESGGGLVQPGGSMKLSCAASGFTFSDAWMDWVRQSPEKGLEWVAEIRNKANNHATYYDESVKGRFTISRDDSKSRVYLQMISLRAEDTGLYYCTGEFANWGQGTLVTVSA VL: DVVMTQTPLSLPVSLGDQASISCRSSQNLVHNNGNTYLYWFLQKSGQSPKLLIYRASIRFSGVPDRFSGSGSETDFTLKISRVEAEDLGVYFCFQGTHVPWTFGGGTKLEIK
